Measured values from the supplement of paper PMC12042874.
± gives the uncertainty stated by the source.

assay: amyloid nucleation score (Sup35N fusion, yeast selection) (log enrichment); library NNK3; higher = more nucleation; inactive = no reads after selection
Summary of the method: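 Random libraries were run with three technical output replicates. In each, psi-negative yeast expressing Sup35N fused to peptides of 20 random codons were induced 24 hours with 100 μM copper sulfate and grown 7 days at 30°C on medium lacking adenine and uracil, and input and output plasmid inserts were Illumina-sequenced. The nucleation score is the DiMSum log enrichment of output over input reads, centred on the mode score of non-aggregating sequences, and sequences under 100 input reads were excluded.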

Amyloid nucleation score, 1.42 ± 0.12:
DSKMLCCCCWPVRN

Amyloid nucleation score, 2.71 ± 0.064:
EFNNFYFCFFTV

Amyloid nucleation score, -0.014 ± 0.46:
ELRQMTRVSVLASYTWSTTL

Amyloid nucleation score, 0.34 ± 0.31:
ELNTFKSTQIHWGIGDSSQE

Amyloid nucleation score, -0.657 ± 0.93:
ELDCELMIALFLLWIVHANG

Amyloid nucleation score, 2.88 ± 0.071:
FCIQSVFCCT

Amyloid nucleation score, 0.621 ± 0.27:
EYRGKIDVYYLIGQNYSVSC

Amyloid nucleation score, 0.984 ± 0.12:
DWYIVRMARCG

Amyloid nucleation score, 0.661 ± 0.27:
EEMVSDRVRMLVTINHR

Amyloid nucleation score, -0.226 ± 1.1:
DYIEGLECVFRDPARIFLWG

Amyloid nucleation score, 0.293 ± 0.23:
FAEYISQ

Amyloid nucleation score, -0.213 ± 0.9:
EYGSATVVWNHYFSPWVRFF

Amyloid nucleation score, -0.464 ± 0.96:
DRNLDVPCLDVLRSMLDVCN

Amyloid nucleation score, 3.31 ± 0.079:
FCCLEWNFIFNTSGHVSNNV

Amyloid nucleation score, 1.5 ± 0.11:
DNQVICISCYGLIGLKGGRQ

Amyloid nucleation score, -0.319 ± 1.3:
DPVMTACNALMTSVS

Amyloid nucleation score, 1.57 ± 0.14:
EEVAGSTYIISSVVVYSRAG

Amyloid nucleation score, 1.99 ± 0.058:
FCSPSFYFGADGDTT

Amyloid nucleation score, 2.96 ± 0.072:
DMTGGVCHFWSCCVSCNK

Amyloid nucleation score, inactive:
DLGYVLLMTHSRIMMCLHHY
DLILWFPL
DLLDHGFEASSKDLEFRDHS
DLNDGWGWKRLTFQSVRCGE
DLNMGYKFLISKYSWPVYPM
DLQLRNWCLWVSWWN
DLSSSGCKLSRIFHGHNWSR
DLWDTCCLII
DMCIHWDEGNAWWYKSMASV
DMGKKSSLGNKWVIREAHMG
DMIESSKRFFGSARIVLPEM
DMIKCGLSPDRVFIWYWPNK
DMLAYADMLHNFFNSSVHFW
DMWYRYYMSLGSCKRGSVWK
DNFVEDFLTMASGNIRC
DNLGLFSVVKRSPMLSVTKE
DNRYVY
DPLILPIVVDRIVADDCYCQ
DPPHWVDFSRFR
DPTIVIGDQPIRLRPSVCQM
DQECRA
DQGDRSFCSNLRLGYGVRAW
DQGHRNYINSPRNFLSDKSC
DRHSTYCLAS
DRHVSQFSVWDW
DRKNCRRSHVWVMRMGNWYC
DRLPGANICKRRFDMCERKV
DRVITSNFFSSVWTQT
DRYLCVVKCSVVTGIDQMSM
DSFNCDFNMCHDYVM
DSIAVCGRITPSLNLQFDMQ
DSKGIFYFFGLVSLY
DSLIVCTVPHGLDVVSTRRV
DSLKIR
DSLSDLLYSFKFKG
DSLTDVMTWELWDIYHVKHE
DSPRGV
DSTEVRYQNPMTTLRGVVFW
DTGLAESQGMN
DTLLRKFWVIIVIGTALGSM
DTWRMFWPLVVLNCADGAPG
DVFHSCLAQFILYTP
DVGTCSLLNGHKYFFRFNVV
DVMSEFLFKYWVVNQQCFTR
DVSYYERGSSVHYTHSD
DWRAVLLGITSFA
DWTGNMGDNHSTRVFRRKRD
DYNILQSRMSYRAYMCSLHV
DYTPGGCRPTTNCLS
DYYTVCQAWIYIGFAILKW
EAEGNINTRGTHRCLYGSFK
EAYEAQD
ECATTVGNAFRRSGVQVFAM
ECEWDMVH
ECHRGDHINDYVRADNRFSL
ECPAALLKKIVPYKKLHGRM
EDHFSLHACVSSGTLSKVVY
EDIGGCECRYSIKDVY
EDLMLVQF
EDYLFHLLRDPRRTGWLIWF
EFLESMNFVVTFLRWIQWTN
EFMILDLCMG
EFQNISWYTKLEGEYCGEMV
EGILPYLRYLFRNLSVGCCW
EGTKEF
EGTRLTSYM
EHGMVENRQRRFCLDWWDGM
EHVWHRCTKVN
EIFVFTM
EIGYYFNFKRLGAS
EIIFLS
EIRKQHCCHS
EIVYCPWLQSWRA
EKECRTWHHVDGSLVESCYY
ELIAIRRSNFHKKFLLNLYC
ELISGLLRVGLDLKKAVSFD
ELISRMSFRSLCLAFFISVC
ELLWNLRGNFDIDLGSFIRT
ELNIN
ELNRDDCEGSSATPQRDFNV
ELRSIR
ELVCVA
ELYVMLGDGAFVRAIKDYVS
EMCSA
EMSAMRCILLMRVDPICSLS
ENLLISKRCINGMA
ENLLNMFWMFPLWYLGFNLG
ENTCYRVGALIAAFTSFKLW
ENVPLNAAYCSL
EPNRVLMKVQYRNSPCYTRR
EPVFCMWLDMGLGPNDCRMA
EQLISTSPLCVFIGFLVVLY
ERFLIPSDLNYKYA
ERFNPDEVCE
ERFRGMDRHVGVVWYDFV
ERLSMLVPYISDRYWLSDVN
ESFPEFVEVGICR
ESRMDRCCPSFGMCSLRYQK
ESRVPRSIKDSL
ESTYVDGRNTVNDYCPNSTI
ESYINLDIHNYIKTIILSLA
ETGMLCSGYCKGVCARDDPG
ETRFWNLIHADYIRMIGAGF
ETYKITLRTCLLATAGLREF
EVCFIRLLLLYCR
EVVITLANAEGPAEQEF
EVVPCCF
EWLGNCRNDCVMWLCYNMAS
EWSLKIVTMNMASWM
EYADTEKVASNVLFFSRLAG
EYNPTYYFYRTFMAFFLKMI
FAAAFDRGQGKS
FADVGTEFSCQEVNMKTHPS
FAICSYANAEVSWKDGESAY
FASIRSRTRDRVSYVTPSFL
FASTVCEIPSFPWTKPRIMV
FASVFVMN
FAYLF
FAYLFPCMLLPRSLFAFRIN
FCDNQWRHKPTRVTIFFE
FCFSGRMTYHFTTWFIKRRS
FCGKLSCCFIRLAELFLVGK
FCMMKRSFCPDLNKLATDLV
FCPPADGRVTGTCDLFLTNS
FCVIMSM
FCYSDLNYRWICYSRDVESS
FDDVGSNSLHCIMMHELLGV
FDDYLKSYFKQYSNDHVG

Amyloid nucleation score, 1.16 ± 0.17:
EIRMRMIKRFVYD

Amyloid nucleation score, 2.33 ± 0.06:
DTFACCPRWNLCGENTLPYI

Amyloid nucleation score, 2.18 ± 0.088:
DMISFKMLQYCWCSSCVFSH

Amyloid nucleation score, 2.43 ± 0.068:
EVCNVVTCGNLFKVTIYNSQ

Amyloid nucleation score, -0.192 ± 0.71:
EYSFSLWSVSPAYTHITYGG

Amyloid nucleation score, -0.315 ± 0.9:
EKDISAAMRMHGR

Amyloid nucleation score, -1.33 ± 1.8:
EYENLYLRVQFSYMLLFLVM

Amyloid nucleation score, 2.19 ± 0.069:
DMNSACCVWHSVFYSEFYVI

Amyloid nucleation score, -0.162 ± 0.98:
DLPKVHGKFFYSLPMVVNTN

Amyloid nucleation score, 1.25 ± 0.12:
ENTTMVGHMGYSLMFSYK

Amyloid nucleation score, -0.416 ± 0.88:
DRYFLVDAKMFTGRTYLILG
